Results taken from US20260217797A1 (Takeda / Millennium, published 2026).
Where a chain is given by its changes, count along the chain named.

T1: MERS-CoV [change] (MERS-CoV, UniProt K9N5Q8 18-725)
T1 sequence: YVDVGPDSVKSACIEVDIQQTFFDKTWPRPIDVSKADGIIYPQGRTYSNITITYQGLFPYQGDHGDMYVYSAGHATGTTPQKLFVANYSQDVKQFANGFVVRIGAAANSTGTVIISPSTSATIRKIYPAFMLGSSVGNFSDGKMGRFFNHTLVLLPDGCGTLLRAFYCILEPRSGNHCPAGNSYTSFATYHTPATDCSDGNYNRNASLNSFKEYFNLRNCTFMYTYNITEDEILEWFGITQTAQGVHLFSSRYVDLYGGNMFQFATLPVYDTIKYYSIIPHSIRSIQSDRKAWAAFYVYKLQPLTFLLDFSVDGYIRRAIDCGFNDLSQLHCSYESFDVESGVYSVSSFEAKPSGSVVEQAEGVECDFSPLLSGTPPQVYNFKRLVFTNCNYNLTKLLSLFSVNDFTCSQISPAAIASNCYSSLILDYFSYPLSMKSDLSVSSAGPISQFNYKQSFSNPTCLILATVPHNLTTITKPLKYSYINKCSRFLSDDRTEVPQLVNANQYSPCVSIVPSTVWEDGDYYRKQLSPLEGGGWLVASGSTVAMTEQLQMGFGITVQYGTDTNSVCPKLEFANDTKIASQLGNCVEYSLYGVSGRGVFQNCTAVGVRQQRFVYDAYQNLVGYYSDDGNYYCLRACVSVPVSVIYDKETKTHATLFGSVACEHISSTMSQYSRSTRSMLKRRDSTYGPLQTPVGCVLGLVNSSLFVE

B1: A-20 (antibody, V domains shown)
VH: QVQLVESGGGVVQPGRSLRLSCAASGFTFSNFAMHWVRQAPGKGLEWVAVILYDGINKYYADSVKGRFTISRGNSKNTLSLQMNSLRAEDTAVYYCARAQNYYDRSGTLQLDAFDIWGQGTLVTVSS
VL: AIQMTQSPSSLSASVGDRVTITCRASQGIRNDLGWYQQKPGKAPKLLIYAASSLQSGVPSRFSGSGSGTDFTLTISSLQPEDFATYYCLQDYNYPLTFGGGTKVEIK
B2: A-20.2 (antibody, V domains shown)
VH: B1 VH with E6Q, S30D, L52E, S106Y
VL: B1 VL with A50D
B3: A-20.3 (antibody, V domains shown)
VH: B1 VH with E6Q, S30D, K58D, S106H
VL: B1 VL with Q27D, A50E, D91N
B4: A-21 (antibody, V domains shown)
VH: EVQLVESGGGLVQPGGSLRLSCAASGFTFSRYWMHWVRQAPGKGLVWVSRINSDGSSTTYADSVKGRFTISRDNAKNTLYLQMNSLRAEDTAVYYCARELYYYDSRGAEEGEGWFDPWGQGTLVTVSS
VL: QSVLTQPPSVSGAPGQRVTISCTGISSNIGAGYDVHWYQQLPGTAPKLLIYGNSNRPSGVPDRFSASKSGTSAPLAITGLQAEDEADYYCQSSDRSLSGSVFGTGTKVTVL
B5: A-21.1 (antibody, V domains shown)
VH: B4 VH with S30R, A108F
VL: B4 VL
B6: A-3 (antibody, V domains shown)
VH: EVQLLESGPGLVKPSETLSLTCTVSGGSINSRSYYWGWIRQPPGKGLEWIGSIYYSGSTYYNPSLKSRVTISVDTSKNQFSLKLSSVIAADTAVYFCARLEQWELPGGWFDPWGQGTLVTVSS
VL: NFMLTQPHSVSESPGKTVTISCTRSSGSIASNYVQWYQQRPGSAPTTVIYEDNQRPSGVPDRFSGSIDISSNSASLTISGLKTEDEADYSCQSSDSSNVVFGGGTKLTVL
B7: A-4 (antibody, V domains shown)
VH: EVQLVESGGGLIQPGGSLTLSCAASGFTVSSNYMNWVRQAPGKGLEWVSVIYSGGSTYYADSVKGRFTISRDNSKNTLYLQMNSLRAEDTAVYYCAREVYSYFDYWGQGTLVTVSS
VL: DIQLTQSPSFLSASVGDRVTITCRASQGISSYLAWYQQKPGKAPKLLIYAASTLQSGVPSRFSGSGSGTEFTLTISRLQPEDLATYYCQQLNSYPPHTFGQGAKLEIK
B8: A-5 (antibody, V domains shown)
VH: QVQLVESGGGLIQPGESLRLSCAASEFIVSRNYMSWVRQAPGKGLEWVSVIYSGGNTYYADSVKGRFTISRDNSKNTLYLQMNSLRAEDTAVYYCARDLRGPGCFDFWGQGTTVTVSS
VL: DIQVTQSPSSLSASVGDRVTITCQASQDISNFLNWYQQKPGKAPKLLIYDASNLETGVPSRFSASGSGTEFTFTISSLQPEDIATYYCQQYDNLRVTFGGGTKLEIK
B9: A-7 (antibody, V domains shown)
VH: EVQLVESGAEVRKPGASVKVSCKASGYTFTFYYIHWVRQAPGQGLEWMGWISPISGATNYAQTFQGRVTMTRDTSITTAYMELSSLTSDDTAVYYCAREKYYDSSGSSDYWGQGTLVTVSS
VL: QPVLTQPPSVSAAPGQNVTIFCSGSSSNIGNNYVSWYQQLPGPAPKLLIYENNKRPSGIPDRFSGSKSGTSATLGITGLQTGDEADYYCGTWESSLSAPRVFGSGTKLTVL
B10: A-8 (antibody, V domains shown)
VH: EVQLLESGGGLVQPGGSLRLSCAASGFTFSSYAMSWVRQAPGKGLEWVSAISGSGNSTSYADSVKGRFTLSRDNSKNTLYLQMNSLRAEDTAIYYCAKGLGTRSFNWGAFDYWGQGTLVTVSS
VL: DIRVTQSPSSLSASVGDRVTITCRASQGISYSLAWYQQKPGKAPKLLLYAASNLESGVPSRFSGSGSGTDYTLTVSSLQPEDFATYYCQQYYSTPWTFGQGTKVEIK
B11: A-12 (antibody, V domains shown)
VH: EVQLLESGGGLVQPGGSLRLSCAVSGLTVSSNYMSWVRQAPGKGLEWVSLIYSGGSTYYADSVKGRFTISRDNSKNTLYLQMNSLRAEDTAVYYCARGELGIPYGMDVWGQGTTVTVSS
VL: QSVLTQPPSVSAAPGQKVTISCSGGSSNVGDNFVSWYQQLPGTAPKLLIYDNNRRPSGIPDRFSGSKSGTSATLGITGLQTGDEADYYCGTWDSSLSAGVFGGGTKVTVL
B12: A-14 (antibody, V domains shown)
VH: EVQLVESGGGVVQPGRSLRLSCAASGFTFSTYGMHWVRQAPGKGLEWVAVIWYDGSNKYYADSVKGRFTISRDNSKNTLYLQMNSLRAEDTAVYYCARSVDGDYLEYFQHWGQGTLVTVSS
VL: QPVLTQPRSVSGSPGQSVTISCTGTSSDVGGYNYVSWYQQHPGKAPKLMIYDVSKRPSGVPDRFSGSKSGNTASLTISGLQAEDEADYYCCSYAGGYTNYVFGTGTKLTVL
B13: A-15 (antibody, V domains shown)
VH: QVQLVQSGAEVKKPGASVKVSCKASGYTSSSYYMHWVRQAPGQGPEWMGIINPGGTSTSYAQKFQGRVTMTRDTSTSTVYMELSSLRSEDTAVYYCAIGYCSTTSCRWGDAFDIWGQGTMVTVSS
VL: DIQVTQSPSSLSASVGDRVTITCRASQSISSYLNWYQQKPEKAPNLLIYAASSLQSGVPSRFSGSGSGTDFTLTISSLQPEDFATYYCQQSSTTPPTFGQGTKVEIK
B14: A-17 (antibody, V domains shown)
VH: EVQLQESGPGLVKPSETLSLTCTVSGGSISSYYWSWIRQPPGKGLEWIGYIYYSGSTNYNPSLKSRVTISVGTSKNQFSLKLSSVTAADTAVYYCAKSASDEPPPSTAAAGSHYYYYGMDVWGQGTTVTVSS
VL: EIVMTQSPLSLPVTPGEPASISCRSSQSLLHSNGYNYLDWYLQKPGQSPHVLIYLGSNRASGVPDRFSGSGSGTDFTLKISRVEAEDVGVYYCMQALQTPNTFGQGTKLEIK
B15: A-20.1 (antibody, V domains shown)
VH: B1 VH
VL: B1 VL with R24V, A50E, Q55E
B16: A-23.3 (antibody, V domains shown)
VH: EVQLVESGGGLVQPGRSLRLSCAASGFTFDDYAMHWVRQAPGKGLEWVSGTSWNSGTIGYADSVKGRFIISRDNAKNSLYLQMNSLRGEDMALYYCVKDRKREDPSLGGMDVWGQGTTVTVSS
VL: SYVLTQPPSVSVAPGQTARITCGGNNIGSKSVHWYQQKPGQAPVLVVYDDTDRPSGIPERFSGSNSGNTATLTISRVEAGDEADYYCQVWDSSSDDYVFGTGTKVTVL

biological target: T2, SARS-CoV-2 wild type spike protein (on reporter virus particles) (SARS-CoV-2, UniProt P0DTC2 14-1273); assay: cell-based or functional assay

Binder	WT PsV IC50 [nM]
B1	2.45
B2	1.06
B3	1.51
B4	2.78
B5	1.75

biological target: T2, SARS-CoV-2 wild type spike protein (on …); assay: cell-based or functional assay; remark: another data set of the same source

Binder	PsV Neut Assay IC50 [nM]
B6	0.419
B7	2.26
B8	1.1
B9	0.0922
B10	0.846
B11	0.404
B12	1.61
B13	1.44
B14	0.66

biological target: T3, SARS-CoV-2 Spike S1-His (SARS-CoV-2, UniProt P0DTC2 16-685); assay: Octet BLI, IgG, monovalent

Binder	Kd [nM]
B1	3.95
B2	0.293
B3	0.366
B4	0.529

biological target: T4, SARS-CoV1 Spike [change] (SARS-CoV-1, UniProt P59594 14-667); assay: Octet BLI, IgG, monovalent

Binder	Kd [nM]	binding result
B1	22	–
B15	5.29	–
B2	1.74	–
B3	3.52	–
B4	9.03	–
B5	6.57	–
B16	–	no binding

biological target: T3, SARS-CoV-2 Spike S1-His; assay: Octet BLI, IgG, monovalent; remark: another data set of the same source

Binder	Kd [nM]
B6	37.4
B8	37.3
B9	2.71
B10	0.477
B11	2.57
B12	26.6
B13	7.82
B14	1.58

biological target: T4, SARS-CoV1 Spike [change]; assay: Octet BLI, IgG, monovalent; remark: another data set of the same source

Binder	binding result
B6	no binding
B7	no binding
B8	no binding
B9	no binding
B10	no binding
B11	no binding
B12	no binding
B13	no binding
B14	no binding

biological target: T1, MERS-CoV [change]; assay: Octet BLI, IgG, monovalent

Binder	binding result
B6	no binding
B7	no binding
B8	no binding
B9	no binding
B10	no binding
B11	no binding
B12	no binding
B13	no binding
B14	no binding

biological target: SARS-CoV-2 S Trimer (SARS-CoV-2, UniProt P0DTC2 16-1213); assay: Octet BLI, IgG, avid

Binder	Kd [nM]
B6	0.945
B7	1.97
B8	2.41
B9	0.804
B10	1.53
B11	1.11
B12	2.09
B13	1.62
